Assays:
[1] = target: WT/M2345 IRSp53 heterodimer (human (from the printed UniProt entry)) (UniProt Q9UQB8); assay: co-IP; homo- and heterodimers of wild-type and M2345 IRSp53 (FLAG and STREP tags, single plasmid with IRES) from HEK293T cells; endogenous 14-3-3 detected by blot, relative to WT-IRSp53-FLAG/WT-IRSp53-STREP
[2] = target: M2345/WT IRSp53 heterodimer (human (from the printed UniProt entry)) (UniProt Q9UQB8); assay: as above
M2345/WT IRSp53 heterodimer (human, sequence (Q9UQB8 other isoform, or with tags, fused parts or gaps T340A | T360A | S366A | 452SSST455 -> AAAA, chain 1 of 2): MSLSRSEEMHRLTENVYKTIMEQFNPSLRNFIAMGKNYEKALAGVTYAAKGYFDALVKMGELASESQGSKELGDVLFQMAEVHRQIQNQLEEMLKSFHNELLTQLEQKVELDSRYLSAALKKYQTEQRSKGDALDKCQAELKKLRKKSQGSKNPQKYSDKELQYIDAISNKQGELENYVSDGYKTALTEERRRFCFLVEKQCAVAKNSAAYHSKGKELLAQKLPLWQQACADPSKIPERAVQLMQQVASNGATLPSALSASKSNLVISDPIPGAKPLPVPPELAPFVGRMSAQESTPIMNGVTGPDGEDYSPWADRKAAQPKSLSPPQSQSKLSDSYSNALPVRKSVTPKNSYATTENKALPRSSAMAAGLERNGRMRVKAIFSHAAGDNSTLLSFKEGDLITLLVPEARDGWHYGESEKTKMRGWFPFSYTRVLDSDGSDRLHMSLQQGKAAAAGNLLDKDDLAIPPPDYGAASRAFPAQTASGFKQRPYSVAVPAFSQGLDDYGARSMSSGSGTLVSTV
M2345/WT IRSp53 heterodimer (human, sequence (Q9UQB8 other isoform, or with tags, fused parts or gaps, chain 2 of 2): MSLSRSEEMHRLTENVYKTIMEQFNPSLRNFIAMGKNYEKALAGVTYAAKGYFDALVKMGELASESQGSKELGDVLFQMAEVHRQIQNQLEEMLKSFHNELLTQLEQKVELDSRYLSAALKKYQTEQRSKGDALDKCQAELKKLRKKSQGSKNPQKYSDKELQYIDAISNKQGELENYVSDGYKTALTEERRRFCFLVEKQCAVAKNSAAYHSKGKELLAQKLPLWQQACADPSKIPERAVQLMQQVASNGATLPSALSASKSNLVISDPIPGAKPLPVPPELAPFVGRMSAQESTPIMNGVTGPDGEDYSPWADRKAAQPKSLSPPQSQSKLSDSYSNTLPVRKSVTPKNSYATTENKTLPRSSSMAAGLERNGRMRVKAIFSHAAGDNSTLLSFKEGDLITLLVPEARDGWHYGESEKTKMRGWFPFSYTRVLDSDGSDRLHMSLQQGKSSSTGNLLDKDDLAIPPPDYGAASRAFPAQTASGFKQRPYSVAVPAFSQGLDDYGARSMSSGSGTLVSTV

endogenous 14-3-3 (all isoforms included), sequence (P27348 whole entry, canonical isoform): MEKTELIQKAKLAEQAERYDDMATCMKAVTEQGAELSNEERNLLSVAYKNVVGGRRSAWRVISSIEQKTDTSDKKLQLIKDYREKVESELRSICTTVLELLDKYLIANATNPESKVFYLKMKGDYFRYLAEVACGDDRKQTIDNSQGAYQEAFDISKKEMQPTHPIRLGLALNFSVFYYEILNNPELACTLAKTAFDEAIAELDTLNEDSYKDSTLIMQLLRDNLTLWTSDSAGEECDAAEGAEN

percent of the amount that coimmunoprecipitates with WT/WT IRSp53 [1]: 50%
percent of the amount that coimmunoprecipitates with WT/WT IRSp53 [2]: 50%
Substance: endogenous 14-3-3 (all isoforms included) (from UniProt P27348 1-245) (natural protein)

Reference: PMC6351565
